Assay in all cases: cell-based or functional assay
Test [1] addresses T1, human GIP receptor (human) (UniProt P48546).
T1 sequence (looked up): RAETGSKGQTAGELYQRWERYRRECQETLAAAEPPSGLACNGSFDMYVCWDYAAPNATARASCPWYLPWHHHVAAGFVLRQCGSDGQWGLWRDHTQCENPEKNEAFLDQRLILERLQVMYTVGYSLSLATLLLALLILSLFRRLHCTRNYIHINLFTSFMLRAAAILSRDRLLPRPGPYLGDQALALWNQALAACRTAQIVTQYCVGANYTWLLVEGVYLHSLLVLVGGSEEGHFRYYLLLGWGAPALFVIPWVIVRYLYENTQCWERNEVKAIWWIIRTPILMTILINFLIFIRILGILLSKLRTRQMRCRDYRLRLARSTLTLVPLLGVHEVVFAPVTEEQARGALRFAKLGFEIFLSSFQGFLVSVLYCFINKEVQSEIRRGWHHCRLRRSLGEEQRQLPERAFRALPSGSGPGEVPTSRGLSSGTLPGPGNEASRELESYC

Another test concerns the target hGLP-1R (Homo sapiens, UniProt P43220).
Test [2] has as its target human GLP-1R (SNAP-GLP-1R expressed in HEK293 cells) (human) (UniProt P43220).
The target of test [3] is human glucagon receptor (human) (UniProt P47871).
human glucagon receptor (human), sequence (P47871 26-477): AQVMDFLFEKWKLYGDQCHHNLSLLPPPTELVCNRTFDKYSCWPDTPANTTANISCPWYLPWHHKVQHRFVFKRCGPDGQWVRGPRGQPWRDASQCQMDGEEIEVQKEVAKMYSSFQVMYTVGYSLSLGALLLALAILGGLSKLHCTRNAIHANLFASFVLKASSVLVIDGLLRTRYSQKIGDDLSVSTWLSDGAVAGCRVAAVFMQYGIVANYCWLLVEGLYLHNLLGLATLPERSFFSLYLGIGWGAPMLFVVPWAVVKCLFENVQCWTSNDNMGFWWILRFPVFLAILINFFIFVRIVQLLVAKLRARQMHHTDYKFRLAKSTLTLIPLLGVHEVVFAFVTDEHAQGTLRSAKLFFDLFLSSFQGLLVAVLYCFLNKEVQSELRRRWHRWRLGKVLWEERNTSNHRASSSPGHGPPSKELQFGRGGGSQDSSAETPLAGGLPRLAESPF

hGLP-1R, sequence (P43220 24-463): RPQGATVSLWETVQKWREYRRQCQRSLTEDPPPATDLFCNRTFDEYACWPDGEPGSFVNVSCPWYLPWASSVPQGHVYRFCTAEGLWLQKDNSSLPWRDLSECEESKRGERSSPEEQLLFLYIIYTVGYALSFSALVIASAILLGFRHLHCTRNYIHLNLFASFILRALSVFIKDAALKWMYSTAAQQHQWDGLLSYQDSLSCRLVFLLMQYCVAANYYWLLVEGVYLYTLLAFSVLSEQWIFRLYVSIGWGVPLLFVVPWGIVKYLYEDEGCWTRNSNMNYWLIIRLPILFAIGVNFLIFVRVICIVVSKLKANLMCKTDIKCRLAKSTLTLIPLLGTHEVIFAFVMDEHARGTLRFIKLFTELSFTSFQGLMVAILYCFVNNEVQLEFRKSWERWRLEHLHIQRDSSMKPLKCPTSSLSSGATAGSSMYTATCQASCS
human GLP-1R (SNAP-GLP-1R expressed in HEK293 cells) (human), sequence (P43220 24-463): as above

B1: Example 154 (peptide)
chain: YXQGTFTSDXSXXLDKKAQXAFIEYLLAGGPSSGEPPPSGS
modifications: Aib, 4Pal, Orn, αMeL; lipidated Lys; C-terminal amide; synthetic construct; SITE 2: note = 2-Aminoisobutyric Acid; SITE 10: note = 3-(4-Pyridyl)-L-alanine; SITE 12: note = L-ornithine; SITE 13: note = alpha-methyl-leucine; SITE 17: note = Lysine is chemically modified through conjugation of the epsilon-amino group of the Lysine side chain with (2-[2-(2-
B1: the Relative cAMP EC50, nM (0.1% casein) in test [1] stood at 0.227 nM; with hGLP-1R, 4.94 nM; in test [3], 8.72 nM. Further, the values for the cAMP Rel EC50, nM (1% HSA) (in test [1]; with hGLP-1R; in test [3]) were 29.7 nM, 569 nM and 1040 nM, respectively. Moreover, in test [2], the GLP1R Internalization EC50 was 47.7 nM. In addition, in test [2], the Internalization % TOP is 65.9%.

B2: Example 162 (peptide)
chain: YXQGTFTSDFSXXLDKKAQXAFIEYLLEGGHSSGAPPPGGS
modifications: Aib, Orn, αMeL; acylated Lys; C-terminal amide; synthetic construct; SITE 2: note = 2-Aminoisobutyric Acid; SITE 12: note = L-ornithine; SITE 13: note = alpha-methyl-leucine; SITE 17: note = Lysine is chemically modified through conjugation of the epsilon-amino group of the Lysine side chain with (2-[2-(2-Amino-ethoxy)-ethoxy]-acetyl)-(gamma-Glu)
In the case of B2, in test [1], the Relative cAMP EC50, nM (0.1% casein) was 0.222 nM and the cAMP Rel EC50, nM (1% HSA) was 37.5 nM. In the test with hGLP-1R, this molecule gave a Relative cAMP EC50, nM (0.1% casein) of 4.72 nM and a cAMP Rel EC50, nM (1% HSA) of 786 nM. In test [2], this molecule had a GLP1R Internalization EC50 of 48.8 nM and an Internalization % TOP of 44.8%. In test [3], this molecule came in with a Relative cAMP EC50, nM (0.1% casein) of 4.72 nM and a cAMP Rel EC50, nM (1% HSA) of 558 nM.

B3: Example 164 (peptide)
chain: YXQGTFTSDFSXXLDKKAQXAFIEYLLEGGHSSGEPPPGGS
modifications: non-natural residues; lipidated Lys AEEA-γGlu-C18 diacid; C-term amide; synthetic construct; SITE 2: note = 2-Aminoisobutyric Acid; SITE 12: note = L-ornithine; SITE 13: note = alpha-methyl-leucine; SITE 17: note = Lysine is chemically modified through conjugation of the epsilon-amino group of the Lysine side chain with (2-[2-(2-Amino-ethoxy)-ethoxy]-acetyl)-(gamma-Glu)
Consider B3, for which, in test [1], the Relative cAMP EC50, nM (0.1% casein) was 0.302 nM and the cAMP Rel EC50, nM (1% HSA) is 59 nM. In the test with hGLP-1R, this molecule had a Relative cAMP EC50, nM (0.1% casein) of 5.02 nM and a cAMP Rel EC50, nM (1% HSA) of 962 nM. For the same molecule, in test [2], the GLP1R Internalization EC50 is 45.9 nM and the Internalization % TOP was found to be 46.5%. In test [3], the Relative cAMP EC50, nM (0.1% casein) was 2.92 nM and the cAMP Rel EC50, nM (1% HSA) was 411 nM.

B4: Example 163 (peptide)
chain: YXQGTFTSDFSXXLDKKAQXAFIEYLLEGGXSSGAPPPGGS
modifications: non-natural residues; lysine acylated with AEEA linker C18 diacid; C-amide; synthetic construct; SITE 2: note = 2-Aminoisobutyric Acid; SITE 12: note = L-ornithine; SITE 13: note = alpha-methyl-leucine; SITE 17: note = Lysine is chemically modified through conjugation of the epsilon-amino group of the Lysine side chain with (2-[2-(2-Amino-ethoxy)-ethoxy]-acetyl)-(gamma-Glu)
In test [1], B4 displayed a Relative cAMP EC50, nM (0.1% casein) of 0.376 nM and a cAMP Rel EC50, nM (1% HSA) of 52 nM. Also, in the test with hGLP-1R, the Relative cAMP EC50, nM (0.1% casein) amounted to 6.5 nM and the cAMP Rel EC50, nM (1% HSA) turned out to be 762 nM. In test [2], this molecule displayed a GLP1R Internalization EC50 of 143 nM and an Internalization % TOP of 37.8%. Moreover, in test [3], the Relative cAMP EC50, nM (0.1% casein) worked out at 5.6 nM and the cAMP Rel EC50, nM (1% HSA) came out at 790 nM.

B5: Example 157 (peptide)
chain: YXQGTFTSDFSXXLDKKAQXAFIEYLLEAGPSSGEPPPSGQ
modifications: Aib, Orn, alpha-methyl-Leu, D-Ala, lipidated Lys, amide; synthetic construct; SITE 2: note = 2-Aminoisobutyric Acid; SITE 12: note = L-ornithine; SITE 13: note = alpha-methyl-leucine; SITE 17: note = Lysine is chemically modified through conjugation of the epsilon-amino group of the Lysine side chain with (2-[2-(2-Amino-ethoxy)-ethoxy]-acetyl)2-(gamma-Glu)
In test [1], B5 gave a Relative cAMP EC50, nM (0.1% casein) of 0.183 nM and a cAMP Rel EC50, nM (1% HSA) of 22.2 nM. For the same molecule, in the test with hGLP-1R, the Relative cAMP EC50, nM (0.1% casein) was 3.04 nM and the cAMP Rel EC50, nM (1% HSA) was 496 nM. Also, in test [2], the GLP1R Internalization EC50 was 60.3 nM and the Internalization % TOP is 53.3%. Besides, in test [3], the Relative cAMP EC50, nM (0.1% casein) is 4.16 nM and the cAMP Rel EC50, nM (1% HSA) amounted to 838 nM.

B6: Example 158 (peptide)
chain: YXQGTFTSDFSXXLDKKAQXAFIEYLLEGGPSSGAPPPGGT
modifications: Lys acylated AEEA-γGlu-C18 diacid; non-natural residues; C-terminal amide; synthetic construct; SITE 2: note = 2-Aminoisobutyric Acid; SITE 12: note = L-ornithine; SITE 13: note = …; SITE 17: note = Lysine is chemically modified through conjugation of the epsilon-amino group of the Lysine side chain with (2-[2-(2-Amino-ethoxy)-ethoxy]-acetyl)-(gamma-Glu)
Regarding B6, in test [1], the Relative cAMP EC50, nM (0.1% casein) came to 0.245 nM and the cAMP Rel EC50, nM (1% HSA) came out at 24.7 nM. Moreover, in the test with hGLP-1R, the Relative cAMP EC50, nM (0.1% casein) was determined as 2.49 nM and the cAMP Rel EC50, nM (1% HSA) was 184 nM. In test [2], this molecule registered a GLP1R Internalization EC50 of 104 nM and an Internalization % TOP of 52.4%. In addition, in test [3], the Relative cAMP EC50, nM (0.1% casein) was 3.72 nM and the cAMP Rel EC50, nM (1% HSA) was 325 nM.

B7: Example 155 (peptide)
chain: YXQGTFTSDFSXXLDKKAQXAFIEYLLEAGPSSGEPPPSGS
modifications: non-natural residues; lysine acylated with AEEA linker C18 diacid; C-amide; synthetic construct; SITE 2: note = 2-Aminoisobutyric Acid; SITE 12: note = L-ornithine; SITE 13: note = alpha-methyl-leucine; SITE 17: note = Lysine is chemically modified through conjugation of the epsilon-amino group of the Lysine side chain with (2-[2-(2-Amino-ethoxy)-ethoxy]-acetyl)2-(gamma-Glu)
For the molecule B7, in test [1], the Relative cAMP EC50, nM (0.1% casein) amounted to 0.177 nM and the cAMP Rel EC50, nM (1% HSA) is 18.9 nM. In the test with hGLP-1R, the Relative cAMP EC50, nM (0.1% casein) is 2.98 nM and the cAMP Rel EC50, nM (1% HSA) is 503 nM. In test [2], this molecule registered a GLP1R Internalization EC50 of 85.1 nM and an Internalization % TOP of 54.5%. In addition, in test [3], the Relative cAMP EC50, nM (0.1% casein) was 5.68 nM and the cAMP Rel EC50, nM (1% HSA) was found to be 1310 nM.

Source of the values: US20240270821A1, “GIP/GLP1/GCG TRI-RECEPTOR AGONISTS AND USES THEREOF” (priority 2023, published 2024).
